Experimental data taken from publication PMC10617567.

System: AIM2 (recombinant AIM2FL)
Experiment: EMSA
Details: 3' biotin; EMSA: 0.1 uM biotinylated 149 bp dsDNA, protein up to 2.5 ug (twofold dilutions), 4 C, 30 min, 5% native PAGE in 45 mM Tris-borate/1 mM EDTA; pull-down: 1 ug …

149 bp HBV dsDNA
Kd: 1.38
